Assay results reported in US6682731.

Target: HLA-A2 molecule (MHC class I heterodimer, no peptide of the filing added) (human)
Assay: titration of peptide in 0.174 cell lysate, HLA-A2 stabilisation, immunoprecipitation with BB7.2
Conditions: remark: other sources report otherwise

concentration at which the peptide titrated: 5 to 10 nM
B1: peptide SEQ ID NO: 2, Ala Leu Ser Arg Lys Val Ala Glu Leu (peptide)
peptide: ALSRKVAEL
